{"source": "patent US20250262210A1", "about": "(TRUSTEES OF COLUMBIA UNIVERSITY IN THE CITY OF NEW YORK, published 2025)", "binders": {"B1": {"name": "TBK1 (other, human, UniProt Q9UHD2 1-729, looked up)", "chain": "MQSTSNHLWLLSDILGQGATANVFRGRHKKTGDLFAIKVFNNISFLRPVDVQMREFEVLKKLNHKNIVKLFAIEEETTTRHKVLIMEFCPCGSLYTVLEEPSNAYGLPESEFLIVLRDVVGGMNHLRENGIVHRDIKPGNIMRVIGEDGQSVYKLTDFGAARELEDDEQFVSLYGTEEYLHPDMYERAVLRKDHQKKYGATVDLWSIGVTFYHAATGSLPFRPFEGPRRNKEVMYKIITGKPSGAISGVQKAENGPIDWSGDMPVSCSLSRGLQVLLTPVLANILEADQEKCWGFDQFFAETSDILHRMVIHVFSLQQMTAHKIYIHSYNTATIFHELVYKQTKIISSNQELIYEGRRLVLEPGRLAQHFPKTTEENPIFVVSREPLNTIGLIYEKISLPKVHPRYDLDGDASMAKAITGVVCYACRIASTLLLYQELMRKGIRWLIELIKDDYNETVHKKTEVVITLDFCIRNIEKTVKVYEKLMKINLEAAELGEISDIHTKLLRLSSSQGTIETSLQDIDSRLSPGGSLADAWAHQEGTHPKDRNVEKLQVLLNCMTEIYYQFKKDKAERRLAYNEEQIHKFDKQKLYYHATKAMTHFTDECVKKYEAFLNKSEEWIRKMLHLRKQLLSLTNQCFDIEEEVSKYQEYTNELQETLPQKMFTASSGIKHTMTPIYPSSNTLVEMTLGMKKLKEEMEGVVKELAENNHILERFGSLTMDGGLRNVDCL"}, "B2": {"name": "UBXN6 (other, human, UniProt Q9BZV1 1-441, looked up)", "chain": "MKKFFQEFKADIKFKSAGPGQKLKESVGEKAHKEKPNQPAPRPPRQGPTNEAQMAAAAALARLEQKQSRAWGPTSQDTIRNQVRKELQAEATVSGSPEAPGTNVVSEPREEGSAHLAVPGVYFTCPLTGATLRKDQRDACIKEAILLHFSTDPVAASIMKIYTFNKDQDRVKLGVDTIAKYLDNIHLHPEEEKYRKIKLQNKVFQERINCLEGTHEFFEAIGFQKVLLPAQDQEDPEEFYVLSETTLAQPQSLERHKEQLLAAEPVRAKLDRQRRVFQPSPLASQFELPGDFFNLTAEEIKREQRLRSEAVERLSVLRTKAMREKEEQRGLRKYNYTLLRVRLPDGCLLQGTFYARERLGAVYGFVREALQSDWLPFELLASGGQKLSEDENLALNECGLVPSALLTFSWDMAVLEDIKAAGAEPDSILKPELLSAIEKLL"}, "B3": {"name": "TRIM47 (other, human, UniProt Q96LD4 1-638, looked up)", "chain": "MDGSGPFSCPICLEPLREPVTLPCGHNFCLACLGALWPHRGASGAGGPGGAARCPLCQEPFPDGLQLRKNHTLSELLQLRQGSGPGSGPGPAPALAPEPSAPSALPSVPEPSAPCAPEPWPAGEEPVRCDACPEGAALPAALSCLSCLASFCPAHLGPHERSPALRGHRLVPPLRRLEESLCPRHLRPLERYCRAERVCLCEACAAQEHRGHELVPLEQERALQEAEQSKVLSAVEDRMDELGAGIAQSRRTVALIKSAAVAERERVSRLFADAAAALQGFQTQVLGFIEEGEAAMLGRSQGDLRRQEEQRSRLSRARQNLSQVPEADSVSFLQELLALRLALEDGCGPGPGPPRELSFTKSSQAVRAVRDMLAVACVNQWEQLRGPGGNEDGPQKLDSEADAEPQDLESTNLLESEAPRDYFLKFAYIVDLDSDTADKFLQLFGTKGVKRVLCPINYPLSPTRFTHCEQVLGEGALDRGTYYWEVEIIEGWVSMGVMAEDFSPQEPYDRGRLGRNAHSCCLQWNGRSFSVWFHGLEAPLPHPFSPTVGVCLEYADRALAFYAVRDGKMSLLRRLKASRPRRGGIPASPIDPFQSRLDSHFAGLFTHRLKPAFFLESVDAHLQIGPLKKSCISVLKRR"}, "B4": {"name": "TELO2 (other, human, UniProt Q9Y4R8 1-837, looked up)", "chain": "MEPAPSEVRLAVREAIHALSSSEDGGHIFCTLESLKRYLGEMEPPALPREKEEFASAHFSPVLRCLASRLSPAWLELLPHGRLEELWASFFLEGPADQAFLVLMETIEGAAGPSFRLMKMARLLARFLREGRLAVLMEAQCRQQTQPGFILLRETLLGKVVALPDHLGNRLQQENLAEFFPQNYFRLLGEEVVRVLQAVVDSLQGGLDSSVSFVSQVLGKACVHGRQQEILGVLVPRLAALTQGSYLHQRVCWRLVEQVPDRAMEAVLTGLVEAALGPEVLSRLLGNLVVKNKKAQFVMTQKLLFLQSRLTTPMLQSLLGHLAMDSQRRPLLLQVLKELLETWGSSSAIRHTPLPQQRHVSKAVLICLAQLGEPELRDSRDELLASMMAGVKCRLDSSLPPVRRLGMIVAEVVSARIHPEGPPLKFQYEEDELSLELLALASPQPAGDGASEAGTSLVPATAEPPAETPAEIVDGGVPQAQLAGSDSDLDSDDEFVPYDMSGDRELKSSKAPAYVRDCVEALTTSEDIERWEAALRALEGLVYRSPTATREVSVELAKVLLHLEEKTCVVGFAGLRQRALVAVTVTDPAPVADYLTSQFYALNYSLRQRMDILDVLTLAAQELSRPGCLGRTPQPGSPSPNTPCLPEAAVSQPGSAVASDWRVVVEERIRSKTQRLSKGGPRQGPAGSPSRFNSVAGHFFFPLLQRFDRPLVTFDLLGEDQLVLGRLAHTLGALMCLAVNTTVAVAMGKALLEFVWALRFHIDAYVRQGLLSAVSSVLLSLPAARLLEDLMDELLEARSWLADVAEKDPDEDCRTLALRALLLLQRLKNRLLPPASP"}, "B5": {"name": "TRAPPC12 (other, human, UniProt Q8WVT3 1-735, looked up)", "chain": "MEDAGGGEETPAPEAPHPPQLAPPEEQGLLFQEETIDLGGDEFGSEENETASEGSSPLADKLNEHMMESVLISDSPNSEGDAGDLGRVRDEAEPGGEGDPGPEPAGTPSPSGEADGDCAPEDAAPSSGGAPRQDAAREVPGSEAARPEQEPPVAEPVPVCTIFSQRAPPASGDGFEPQMVKSPSFGGASEASARTPPQVVQPSPSLSTFFGDTAASHSLASDFFDSFTTSAFISVSNPGAGSPAPASPPPLAVPGTEGRPEPVAMRGPQAAAPPASPEPFAHIQAVFAGSDDPFATALSMSEMDRRNDAWLPGEATRGVLRAVATQQRGAVFVDKENLTMPGLRFDNIQGDAVKDLMLRFLGEKAAAKRQVLNADSVEQSFVGLKQLISCRNWRAAVDLCGRLLTAHGQGYGKSGLLTSHTTDSLQLWFVRLALLVKLGLFQNAEMEFEPFGNLDQPDLYYEYYPHVYPGRRGSMVPFSMRILHAELQQYLGNPQESLDRLHKVKTVCSKILANLEQGLAEDGGMSSVTQEGRQASIRLWRSRLGRVMYSMANCLLLMKDYVLAVEAYHSVIKYYPEQEPQLLSGIGRISLQIGDIKTAEKYFQDVEKVTQKLDGLQGKIMVLMNSAFLHLGQNNFAEAHRFFTEILRMDPRNAVANNNAAVCLLYLGKLKDSLRQLEAMVQQDPRHYLHESVLFNLTTMYELESSRSMQKKQALLEAVAGKEGDSFNTQCLKLA"}, "B6": {"name": "UFL1 (other, human, UniProt O94874 2-794, looked up)", "chain": "ADAWEEIRRLAADFQRAQFAEATQRLSERNCIEIVNKLIAQKQLEVVHTLDGKEYITPAQISKEMRDELHVRGGRVNIVDLQQVINVDLIHIENRIGDIIKSEKHVQLVLGQLIDENYLDRLAEEVNDKLQESGQVTISELCKTYDLPGNFLTQALTQRLGRIISGHIDLDNRGVIFTEAFVARHKARIRGLFSAITRPTAVNSLISKYGFQEQLLYSVLEELVNSGRLRGTVVGGRQDKAVFVPDIYSRTQSTWVDSFFRQNGYLEFDALSRLGIPDAVSYIKKRYKTTQLLFLKAACVGQGLVDQVEASVEEAISSGTWVDIAPLLPTSLSVEDAAILLQQVMRAFSKQASTVVFSDTVVVSEKFINDCTELFRELMHQKAEKEMKNNPVHLITEEDLKQISTLESVSTSKKDKKDERRRKATEGSGSMRGGGGGNAREYKIKKVKKKGRKDDDSDDESQSSHTGKKKPEISFMFQDEIEDFLRKHIQDAPEEFISELAEYLIKPLNKTYLEVVRSVFMSSTTSASGTGRKRTIKDLQEEVSNLYNNIRLFEKGMKFFADDTQAALTKHLLKSVCTDITNLIFNFLASDLMMAVDDPAAITSEIRKKILSKLSEETKVALTKLHNSLNEKSIEDFISCLDSAAEACDIMVKRGDKKRERQILFQHRQALAEQLKVTEDPALILHLTSVLLFQFSTHSMLHAPGRCVPQIIAFLNSKIPEDQHALLVKYQGLVVKQLVSQSKKTGQGDYPLNNELDKEQEDVASTTRKELQELSSSIKDLVLKSRKSSVTEE"}}, "note": "Where a chain is given by its changes, count along the chain named.", "data": [{"target": "T1, LZTR1 R810W-FLAG (human, UniProt Q8N653 1-840)", "T1 construct": "Stably expressed in U87 cells by lentivirus; also called LZTR1-FLAG-R810W; LZTR1 RW; not shown: FLAG tag", "T1 sequence (looked up)": "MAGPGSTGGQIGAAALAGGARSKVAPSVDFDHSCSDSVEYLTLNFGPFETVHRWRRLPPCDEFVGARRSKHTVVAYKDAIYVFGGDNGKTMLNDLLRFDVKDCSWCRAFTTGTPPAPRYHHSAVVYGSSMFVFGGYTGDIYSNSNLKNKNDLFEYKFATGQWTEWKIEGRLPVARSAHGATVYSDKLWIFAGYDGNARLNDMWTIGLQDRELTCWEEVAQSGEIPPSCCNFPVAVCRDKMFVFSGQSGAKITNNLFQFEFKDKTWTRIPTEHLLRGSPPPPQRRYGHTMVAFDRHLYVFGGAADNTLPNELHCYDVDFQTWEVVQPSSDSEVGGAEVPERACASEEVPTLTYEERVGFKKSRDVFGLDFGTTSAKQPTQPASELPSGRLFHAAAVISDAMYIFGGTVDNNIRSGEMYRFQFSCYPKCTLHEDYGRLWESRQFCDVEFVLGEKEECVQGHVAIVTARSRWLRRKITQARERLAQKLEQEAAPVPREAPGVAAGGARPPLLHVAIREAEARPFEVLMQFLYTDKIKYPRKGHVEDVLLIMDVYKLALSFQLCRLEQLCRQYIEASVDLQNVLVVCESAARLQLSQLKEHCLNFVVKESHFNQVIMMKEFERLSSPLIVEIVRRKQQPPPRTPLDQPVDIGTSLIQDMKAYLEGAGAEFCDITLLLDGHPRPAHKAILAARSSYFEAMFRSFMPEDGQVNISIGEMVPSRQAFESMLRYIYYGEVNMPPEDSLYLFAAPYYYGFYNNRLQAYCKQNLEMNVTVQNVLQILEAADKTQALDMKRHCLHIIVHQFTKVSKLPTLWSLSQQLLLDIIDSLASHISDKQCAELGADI", "assay": "IP/MS, LZTR1 R810W-FLAG, U87", "in_short": "(§1)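 Gel slices were reduced with 5 mM DTT, alkylated with 11 mM IAA and digested overnight at 37° C. with trypsin. Peptides were analysed on an Orbitrap Fusion Tribrid by LC-MS/MS.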", "values": [{"binder": "B1", "binding result": "binds"}, {"binder": "B2", "binding result": "binds"}, {"binder": "B3", "binding result": "binds"}, {"binder": "B4", "binding result": "binds"}, {"binder": "B5", "binding result": "binds"}, {"binder": "B6", "binding result": "binds"}]}, {"target": "T2, LZTR1-FLAG (human, UniProt Q8N653 1-840)", "T2 construct": "Expressed in HEK 293T, HeLa or U87 cells; used as cell lysate; also called LZTR1 wild type-FLAG; LZTR1 WT; not shown: FLAG tag at the C-terminus", "T2 sequence (looked up)": "T1 sequence (looked up) with W810R", "assay": "IP/MS, LZTR1 wild type-FLAG, U87", "in_short": "as §1", "values": [{"binder": "B1", "binding result": "binds"}, {"binder": "B2", "binding result": "binds"}, {"binder": "B3", "binding result": "binds"}, {"binder": "B4", "binding result": "binds"}, {"binder": "B5", "binding result": "binds"}, {"binder": "B6", "binding result": "binds"}]}]}
